Test results from the supplement of paper PMC10567573.

B1: KCNK9 (parent)
chain: CFITLTTIGFGDYVALQTKGALQK

Variants of: B1
Assay: protein stability index of a GFP-peptide fusion (GPS, HEK-293T) (PSI 1-6); higher = more stable
Conditions: c terminus: a fixed tail appended
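Also: lentivirally expressed fusions sorted by FACS into six bins by GFP to DsRed ratio, PSI derived from sequencing read proportions per bin multiplied by bin number.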

Going from CFITLTTIGFNDYVALQTKGALQK [G11N] to CFITLTTIGFPDYVALQTKGALQK [G11P], the protein stability index falls from 2.99 to 1.99.

Compared with CFITLTTIGFKDYVALQTKGALQK [G11K], CFITLTTIGFSDYVALQTKGALQK [G11S] is lower in protein stability index: 2.73 for the first, 2.18 for the second.

First: CFITLTTIGFQDYVALQTKGALQK [G11Q]
Second: CFITLTTIGFCDYVALQTKGALQK [G11C]
The protein stability index of the first is lower: 2.7 for the first, 3.41 for the second.

Compared with CFITLTTIGFTDYVALQTKGALQK [G11T], CFITLTTIGFRDYVALQTKGALQK [G11R] is higher in protein stability index: 1.62 for the first, 3.04 for the second.

Compared with CFITLTTIGFHDYVALQTKGALQK [G11H], CFITLTTIGFEDYVALQTKGALQK [G11E] is higher in protein stability index: 3.08 for the first, 3.16 for the second.

Going from CFITLTTIGFLDYVALQTKGALQK [G11L] to CFITLTTIGFVDYVALQTKGALQK [G11V], the protein stability index falls from 3.22 to 2.31.

Going from CFITLTTIGFFDYVALQTKGALQK [G11F] to CFITLTTIGFIDYVALQTKGALQK [G11I], the protein stability index falls from 3.25 to 2.91.

First: CFITLTTIGFMDYVALQTKGALQK [G11M]
Second: CFITLTTIGFADYVALQTKGALQK [G11A]
The protein stability index of the first is lower: 1.85 for the first, 3.32 for the second.

First: CFITLTTIGFYDYVALQTKGALQK [G11Y]
Second: CFITLTTIGFDDYVALQTKGALQK [G11D]
The protein stability index of the first is higher: 3.95 for the first, 3.33 for the second.

Going from CFITLTTIGFGAYVALQTKGALQK [D12A] to CFITLTTIGFGTYVALQTKGALQK [D12T], the protein stability index falls from 3.21 to 2.49.

Going from CFITLTTIGFGHYVALQTKGALQK [D12H] to CFITLTTIGFGYYVALQTKGALQK [D12Y], the protein stability index falls from 3.68 to 3.4.

First: CFITLTTIGFGKYVALQTKGALQK [D12K]
Second: CFITLTTIGFGFYVALQTKGALQK [D12F]
The protein stability index of the first is higher: 2.82 for the first, 2.49 for the second.

Compared with CFITLTTIGFGEYVALQTKGALQK [D12E], CFITLTTIGFGWYVALQTKGALQK [D12W] is lower in protein stability index: 2.69 for the first, 2.12 for the second.

Compared with CFITLTTIGFGQYVALQTKGALQK [D12Q], CFITLTTIGFGGYVALQTKGALQK [D12G] is higher in protein stability index: 2.05 for the first, 3.42 for the second.

First: CFITLTTIGFGIYVALQTKGALQK [D12I]
Second: CFITLTTIGFGPYVALQTKGALQK [D12P]
The protein stability index of the first is higher: 3.71 for the first, 2.67 for the second.

First: CFITLTTIGFGRYVALQTKGALQK [D12R]
Second: CFITLTTIGFGCYVALQTKGALQK [D12C]
The protein stability index of the first is lower: 2.62 for the first, 3.65 for the second.

Going from CFITLTTIGFGVYVALQTKGALQK [D12V] to CFITLTTIGFGNYVALQTKGALQK [D12N], the protein stability index falls from 2.96 to 2.71.

Compared with CFITLTTIGFGMYVALQTKGALQK [D12M], CFITLTTIGFGDYVGLQTKGALQK [A15G] is lower in protein stability index: 4.64 for the first, 2.48 for the second.

Compared with CFITLTTIGFGDYVSLQTKGALQK [A15S], CFITLTTIGFGDYVRLQTKGALQK [A15R] is lower in protein stability index: 4.26 for the first, 3.46 for the second.

Going from CFITLTTIGFGDYVMLQTKGALQK [A15M] to CFITLTTIGFGDYVKLQTKGALQK [A15K], the protein stability index falls from 3.04 to 2.38.

First: CFITLTTIGFGDYVVLQTKGALQK [A15V]
Second: CFITLTTIGFGDYVLLQTKGALQK [A15L]
The protein stability index of the first is higher: 2.68 for the first, 2.64 for the second.

Going from CFITLTTIGFGDYVHLQTKGALQK [A15H] to CFITLTTIGFGDYVNLQTKGALQK [A15N], the protein stability index falls from 3.04 to 2.76.

Going from CFITLTTIGFGDYVELQTKGALQK [A15E] to CFITLTTIGFGDYVILQTKGALQK [A15I], the protein stability index rises from 2.93 to 3.38.

Compared with CFITLTTIGFGDYVCLQTKGALQK [A15C], CFITLTTIGFGDYVTLQTKGALQK [A15T] is lower in protein stability index: 3.23 for the first, 3.18 for the second.

Going from CFITLTTIGFGDYVYLQTKGALQK [A15Y] to CFITLTTIGFGDYVDLQTKGALQK [A15D], the protein stability index rises from 2.43 to 3.31.

First: CFITLTTIGFGDYVQLQTKGALQK [A15Q]
Second: CFITLTTIGFGDYVPLQTKGALQK [A15P]
The protein stability index of the first is lower: 2.3 for the first, 3.05 for the second.

First: CFITLTTIGFGDYVWLQTKGALQK [A15W]
Second: CFITLTTIGFGDYVFLQTKGALQK [A15F]
The protein stability index of the first is higher: 3.31 for the first, 2.37 for the second.

Compared with CFITLTTIGFGDGVALQTKGALQK [Y13G], CFITLTTIGFGDVVALQTKGALQK [Y13V] is higher in protein stability index: 2.42 for the first, 2.57 for the second.

Going from CFITLTTIGFGDKVALQTKGALQK [Y13K] to CFITLTTIGFGDAVALQTKGALQK [Y13A], the protein stability index rises from 2.24 to 3.35.

Compared with CFITLTTIGFGDPVALQTKGALQK [Y13P], CFITLTTIGFGDWVALQTKGALQK [Y13W] is higher in protein stability index: 2.92 for the first, 2.93 for the second.

Going from CFITLTTIGFGDLVALQTKGALQK [Y13L] to CFITLTTIGFGDRVALQTKGALQK [Y13R], the protein stability index falls from 2.38 to 2.32.

First: CFITLTTIGFGDSVALQTKGALQK [Y13S]
Second: CFITLTTIGFGDHVALQTKGALQK [Y13H]
The protein stability index of the first is higher: 2.51 for the first, 2.07 for the second.

First: CFITLTTIGFGDMVALQTKGALQK [Y13M]
Second: CFITLTTIGFGDEVALQTKGALQK [Y13E]
The protein stability index of the first is higher: 3.32 for the first, 2.12 for the second.

First: CFITLTTIGFGDNVALQTKGALQK [Y13N]
Second: CFITLTTIGFGDDVALQTKGALQK [Y13D]
The protein stability index of the first is lower: 2.04 for the first, 2.1 for the second.

First: CFITLTTIGFGDIVALQTKGALQK [Y13I]
Second: CFITLTTIGFGDQVALQTKGALQK [Y13Q]
The protein stability index of the first is higher: 2.31 for the first, 2.05 for the second.

Compared with CFITLTTIGFGDTVALQTKGALQK [Y13T], CFITLTTIGFGDCVALQTKGALQK [Y13C] is higher in protein stability index: 3.55 for the first, 3.93 for the second.

Compared with CFITLTTIGFGDYVALQQKGALQK [T18Q], CFITLTTIGFGDYVALQFKGALQK [T18F] is lower in protein stability index: 2.63 for the first, 1.72 for the second.

Going from CFITLTTIGFGDYVALQKKGALQK [T18K] to CFITLTTIGFGDYVALQLKGALQK [T18L], the protein stability index rises from 1.58 to 3.51.

First: CFITLTTIGFGDYVALQNKGALQK [T18N]
Second: CFITLTTIGFGDYVALQHKGALQK [T18H]
The protein stability index of the first is lower: 2.42 for the first, 3 for the second.

Going from CFITLTTIGFGDYVALQAKGALQK [T18A] to CFITLTTIGFGDYVALQSKGALQK [T18S], the protein stability index falls from 2.8 to 2.27.

Going from CFITLTTIGFGDYVALQEKGALQK [T18E] to CFITLTTIGFGDYVALQIKGALQK [T18I], the protein stability index falls from 2.28 to 2.12.

Going from CFITLTTIGFGDYVALQRKGALQK [T18R] to CFITLTTIGFGDYVALQCKGALQK [T18C], the protein stability index rises from 2.64 to 3.43.

First: CFITLTTIGFGDYVALQMKGALQK [T18M]
Second: CFITLTTIGFGDYVALQWKGALQK [T18W]
The protein stability index of the first is lower: 2.49 for the first, 3.1 for the second.

Going from CFITLTTIGFGDYVALQYKGALQK [T18Y] to CFITLTTIGFGDYVALQDKGALQK [T18D], the protein stability index falls from 3.26 to 1.76.

Going from CFITLTTIGFGDYVALQPKGALQK [T18P] to CFITLTTIGHGDYVALQTKGALQK [F10H], the protein stability index rises from 1.64 to 2.73.

Compared with CFITLTTIGQGDYVALQTKGALQK [F10Q], CFITLTTIGSGDYVALQTKGALQK [F10S] is lower in protein stability index: 1.56 for the first, 1.39 for the second.

Compared with CFITLTTIGPGDYVALQTKGALQK [F10P], CFITLTTIGDGDYVALQTKGALQK [F10D] is lower in protein stability index: 2.78 for the first, 2.17 for the second.
